Data reported in patent publication US9555076B2, “Neuregulin based methods and compositions for treating cardiovascular diseases” (Zensun (Shanghai) Science & Technology, Co., Ltd., priority 2002, dated 2017).
Several values for one entry are separate records, joined by “and”; a condition that tells them apart may be missing. Identical values can stand only once. Marks after values point to notes of the source that are not given here.

Test system: acute myocardial injury caused by viral (Coxsackie B3) infection in mice
Assay: Survival of mice infected with Coxsackie B3 virus
Assay type: in vivo, BALB/C mice
Settings: for relative survival rate: mice
Protocol: 0.2 ml of 100×TCID50 CVB3 provided by Zhong Shan Hospital affiliated to Fudan University was injected intra-abdominally and established myocarditis model. Within the following week, the mouse manifested pilo-erection, depilation, emaciation, dullness and death, about half of the tested animals died at the 8th day.
Intravenous injection of the testing drug into the tail vein was carried out the same day of intra-abdominal viral infection in mice, the injection was performed for consecutive 5 days, animal survival rate was monitored, after completion of the experiment, echocardiograph, myocardial pathologic examination, serum troponin determination were carried out.
The death status of model animals in various testing drug group was monitored.
• Normal mice control group, model group and testing drug group were set up; • Normal mice control group (n=10); • Model group (n=20): Prepared buffer solution was injected; • Testing drug group (n=20): […] courses with 20 animals assigned for each group; • Placebo control group (n=20): Intra-abdominal injection of non-CVB3 freeze-thaw cellular supernatant, 0.2 ml/animal. 10.2 Dosage Set Up, Preparation of Testing Drug, Route of Drug Administration, Times of Drug Administration, Concentration and Volume of the Testing Drug • rhNRG-1β was diluted with preparation buffer solution (10 mM PB, 0.2% human serum albumin, 5% mannitol to needed concentration; • Three drug administration groups were set up, intravenous injection for consecutive 3-day, 5-day and 7-day, drug volume for each dose was 0.2 ml/animal; • Drug administration of the model group was intravenous injection into the tail vein of mice, once every day (qd), for consecutive 7 days, drug volume for each dose was 0.2 ml/animal. 7.3 Method of the Experiment 7.3.1 Set Up of Acute Viral Myocariditis Animal Model in Mice

B1: rhNRG-1 β: Recombinant human neuregulin fragment of 61 amino acid (SEQ ID NO:4), 3 disulfide bonds, expressed in E. coli (protein, listed as Homo sapiens)
chain: SHLVKCAEKEKTFCVNGGECFMVKDLSNPSRYLCKCPNEFTGDRCQNYVMASFYKAEELYQ
modifications: disulfide (positions not given here)
Mice n = 20, 30 μg/kg iv qd × 7, 7th day, (II)
  Number of survival animals: 18
Mice n = 20, 30 μg/kg iv qd × 7, killed, (I)
  Number of survival animal: 17*
Mice n = 20, 30 μg/kg iv qd × 7, killed, (II)
  Number of survival animals: 18*
5 μg/kg (so in the source) iv qd × 5, 1st day, (I)
  relative survival rate: 100%
5 μg/kg (so in the source) iv qd × 5, 2nd day, (I)
  relative survival rate: 100%
5 μg/kg (so in the source) iv qd × 5, 3rd day, (I)
  relative survival rate: 100%
5 μg/kg (so in the source) iv qd × 5, 4th day, (I)
  relative survival rate: 95%
5 μg/kg (so in the source) iv qd × 5, 5th day, (I)
  relative survival rate: 90%
5 μg/kg (so in the source) iv qd × 5, 6th day, (I)
  relative survival rate: 75%
5 μg/kg (so in the source) iv qd × 5, 7th day, (I)
  relative survival rate: 65%
5 μg/kg (so in the source) iv qd × 5, killed, (I)
  relative survival rate: 50%
7.5 μg/kg iv qd × 5, 1st day, (II)
  relative survival rate: 100%
7.5 μg/kg iv qd × 5, 2nd day, (II)
  relative survival rate: 100%
7.5 μg/kg iv qd × 5, 3rd day, (II)
  relative survival rate: 100%
7.5 μg/kg iv qd × 5, 4th day, (II)
  relative survival rate: 90%
7.5 μg/kg iv qd × 5, 5th day, (II)
  relative survival rate: 85%
7.5 μg/kg iv qd × 5, 6th day, (II)
  relative survival rate: 70%
7.5 μg/kg iv qd × 5, 7th day, (II)
  relative survival rate: 55%
7.5 μg/kg iv qd × 5, killed, (II)
  relative survival rate: 50%
15 μg/kg iv qd × 5, 1st day, (I)
  relative survival rate: 100%
15 μg/kg iv qd × 5, 1st day, (II)
  relative survival rate: 100%
15 μg/kg iv qd × 5, 2nd day, (I)
  relative survival rate: 100%
15 μg/kg iv qd × 5, 2nd day, (II)
  relative survival rate: 100%
15 μg/kg iv qd × 5, 3rd day, (I)
  relative survival rate: 100%
15 μg/kg iv qd × 5, 3rd day, (II)
  relative survival rate: 100%
15 μg/kg iv qd × 5, 4th day, (I)
  relative survival rate: 100%
15 μg/kg iv qd × 5, 4th day, (II)
  relative survival rate: 95%
15 μg/kg iv qd × 5, 5th day, (I)
  relative survival rate: 95%
15 μg/kg iv qd × 5, 5th day, (II)
  relative survival rate: 90%
15 μg/kg iv qd × 5, 6th day, (I)
  relative survival rate: 85%
15 μg/kg iv qd × 5, 6th day, (II)
  relative survival rate: 80%
15 μg/kg iv qd × 5, 7th day, (I)
  relative survival rate: 70%
15 μg/kg iv qd × 5, 7th day, (II)
  relative survival rate: 65%
15 μg/kg iv qd × 5, killed, (I)
  relative survival rate: 65%
15 μg/kg iv qd × 5, killed, (II)
  relative survival rate: 65%
30 μg/kg iv qd × 3, 1st day, (I)
  relative survival rate: 100%
30 μg/kg iv qd × 3, 1st day, (II)
  relative survival rate: 100%
30 μg/kg iv qd × 3, 2nd day, (I)
  relative survival rate: 100%
30 μg/kg iv qd × 3, 2nd day, (II)
  relative survival rate: 100%
30 μg/kg iv qd × 3, 3rd day, (I)
  relative survival rate: 100%
30 μg/kg iv qd × 3, 3rd day, (II)
  relative survival rate: 100%
30 μg/kg iv qd × 3, 4th day, (I)
  relative survival rate: 95%
30 μg/kg iv qd × 3, 4th day, (II)
  relative survival rate: 100%
30 μg/kg iv qd × 3, 5th day, (I)
  relative survival rate: 90%
30 μg/kg iv qd × 3, 5th day, (II)
  relative survival rate: 95%
30 μg/kg iv qd × 3, 6th day, (I)
  relative survival rate: 80%
30 μg/kg iv qd × 3, 6th day, (II)
  relative survival rate: 80%
30 μg/kg iv qd × 3, 7th day, (I)
  relative survival rate: 70%
30 μg/kg iv qd × 3, 7th day, (II)
  relative survival rate: 75%
30 μg/kg iv qd × 3, killed, (I)
  relative survival rate: 65%
30 μg/kg iv qd × 3, killed, (II)
  relative survival rate: 75%
30 μg/kg iv qd × 5, 1st day, (I)
  relative survival rate: 100%
30 μg/kg iv qd × 5, 1st day, (II)
  relative survival rate: 100%
30 μg/kg iv qd × 5, 1st day, Example 5 (I)
  relative survival rate: 100%
30 μg/kg iv qd × 5, 1st day, Example 5 (II)
  relative survival rate: 100%
30 μg/kg iv qd × 5, 2nd day, (I)
  relative survival rate: 100%
30 μg/kg iv qd × 5, 2nd day, (II)
  relative survival rate: 100%
30 μg/kg iv qd × 5, 2nd day, Example 5 (I)
  relative survival rate: 100%
30 μg/kg iv qd × 5, 2nd day, Example 5 (II)
  relative survival rate: 100%
30 μg/kg iv qd × 5, 3rd day, (I)
  relative survival rate: 100%
30 μg/kg iv qd × 5, 3rd day, (II)
  relative survival rate: 100%
30 μg/kg iv qd × 5, 3rd day, Example 5 (I)
  relative survival rate: 100%
30 μg/kg iv qd × 5, 3rd day, Example 5 (II)
  relative survival rate: 100%
30 μg/kg iv qd × 5, 4th day, (I)
  relative survival rate: 100%
30 μg/kg iv qd × 5, 4th day, (II)
  relative survival rate: 100%
30 μg/kg iv qd × 5, 4th day, Example 5 (I)
  relative survival rate: 100%
30 μg/kg iv qd × 5, 4th day, Example 5 (II)
  relative survival rate: 100%
30 μg/kg iv qd × 5, 5th day, (I)
  relative survival rate: 100%
30 μg/kg iv qd × 5, 5th day, (II)
  relative survival rate: 95%
30 μg/kg iv qd × 5, 5th day, Example 5 (I)
  relative survival rate: 95%
30 μg/kg iv qd × 5, 5th day, Example 5 (II)
  relative survival rate: 95%
30 μg/kg iv qd × 5, 6th day, (I)
  relative survival rate: 90%
30 μg/kg iv qd × 5, 6th day, (II)
  relative survival rate: 90%
30 μg/kg iv qd × 5, 6th day, Example 5 (I)
  relative survival rate: 95%
30 μg/kg iv qd × 5, 6th day, Example 5 (II)
  relative survival rate: 95%
30 μg/kg iv qd × 5, 7th day, (I)
  relative survival rate: 85%
30 μg/kg iv qd × 5, 7th day, (II)
  relative survival rate: 85%
30 μg/kg iv qd × 5, 7th day, Example 5 (I)
  relative survival rate: 90%
30 μg/kg iv qd × 5, 7th day, Example 5 (II)
  relative survival rate: 90%
30 μg/kg iv qd × 5, killed, (I)
  relative survival rate: 80%
30 μg/kg iv qd × 5, killed, (II)
  relative survival rate: 85%
30 μg/kg iv qd × 5, killed, Example 5 (I)
  relative survival rate: 85%
30 μg/kg iv qd × 5, killed, Example 5 (II)
  relative survival rate: 80% and 90%
30 μg/kg iv qd × 7, 1st day, (I)
  relative survival rate: 100%
30 μg/kg iv qd × 7, 1st day, (II)
  relative survival rate: 100%
30 μg/kg iv qd × 7, 2nd day, (I)
  relative survival rate: 100%
30 μg/kg iv qd × 7, 2nd day, (II)
  relative survival rate: 100%
30 μg/kg iv qd × 7, 3rd day, (I)
  relative survival rate: 100%
30 μg/kg iv qd × 7, 4th day, (I)
  relative survival rate: 100%
30 μg/kg iv qd × 7, 5th day, (I)
  relative survival rate: 100%
30 μg/kg iv qd × 7, 6th day, (I)
  relative survival rate: 90%
30 μg/kg iv qd × 7, 7th day, (I)
  relative survival rate: 90%
30 μg/kg iv qd × 7, killed, (I)
  relative survival rate: 85%
30 μg/kg iv qd × 7, killed, (II)
  relative survival rate: 80%
